Results reported in publication PMC10746525, “Interaction between the mitochondrial adaptor MIRO and the motor adaptor TRAK” (The Journal of Biological Chemistry, 2023).
One block for each binder: values may come before it.

B2: MIRO1_(177-591) (domain or fragment, human, UniProt Q8IXI2 177-591, looked up)
chain: EEKEMKPACIKALTRIFKISDQDNDGTLNDAELNFFQRICFNTPLAPQALEDVKNVVRKHISDGVADSGLTLKGFLFLHTLFIQRGRHETTWTVLRRFGYDDDLDLTPEYLFPLLKIPPDCTTELNHHAYLFLQSTFDKHDLDRDCALSPDELKDLFKVFPYIPWGPDVNNTVCTNERGWITYQGFLSQWTLTTYLDVQRCLEYLGYLGYSILTEQESQASAVTVTRDKKIDLQKKQTQRNVFRCNVIGVKNCGKSGVLQALLGRNLMRQKKIREDHKSYYAINTVYVYGQEKYLLLHDISESEFLTEAEIICDVVCLVYDVSNPKSFEYCARIFKQHFMDSRIPCLIVAAKSDLHEVKQEYSISPTDFCRKHKMPPPQAFTCNTADAPSKDIFVKLTTMAMYPHVTQADLKSST
notes: Cloned into pETDuet-1; As purified it held 37.0% GDP and 63.0% GTP; samples exchanged with GDP or GTP were also used; also called MIRO1 EF-hands and cGTPase; source: E. coli ArcticExpress(DE3), purified (Ni-NTA, SourceQ flowthrough)
B3: MIRO1_(1-591) (domain or fragment, human, UniProt Q8IXI2 1-591, looked up)
chain: MKKDVRILLVGEPRVGKTSLIMSLVSEEFPEEVPPRAEEITIPADVTPERVPTHIVDYSEAEQSDEQLHQEISQANVICIVYAVNNKHSIDKVTSRWIPLINERTDKDSRLPLILVGNKSDLVEYSSMETILPIMNQYTEIETCVECSAKNLKNISELFYYAQKAVLHPTGPLYCPEEKEMKPACIKALTRIFKISDQDNDGTLNDAELNFFQRICFNTPLAPQALEDVKNVVRKHISDGVADSGLTLKGFLFLHTLFIQRGRHETTWTVLRRFGYDDDLDLTPEYLFPLLKIPPDCTTELNHHAYLFLQSTFDKHDLDRDCALSPDELKDLFKVFPYIPWGPDVNNTVCTNERGWITYQGFLSQWTLTTYLDVQRCLEYLGYLGYSILTEQESQASAVTVTRDKKIDLQKKQTQRNVFRCNVIGVKNCGKSGVLQALLGRNLMRQKKIREDHKSYYAINTVYVYGQEKYLLLHDISESEFLTEAEIICDVVCLVYDVSNPKSFEYCARIFKQHFMDSRIPCLIVAAKSDLHEVKQEYSISPTDFCRKHKMPPPQAFTCNTADAPSKDIFVKLTTMAMYPHVTQADLKSST
notes: Cloned into pRSFDuet-1; also called mitochondrial Rho GTPase 1, near full-length construct lacking the C-terminal transmembrane helix; source: E. coli ArcticExpress(DE3), purified (Ni-NTA, Strep-Tactin)
B6: MBP-TRAK1_(342-431) (domain or fragment, human, UniProt Q9UPV9 342-431, looked up)
chain: EAQEELKNLRNKTMPNTTSRRYHSLGLFPMDSLAAEIEGTMRKELQLEEAESPDITHQKRVFETVRNINQVVKQRSLTPSPMNIPGSNQS
notes: GCN4 of m5 replaced with MBP; Cloned into pMAL-c6T; source: E. coli ArcticExpress(DE3), purified (amylose, Strep-Tactin); not shown: MBP, N-terminal, kept

Tests used:
MIRO1_(177-591) [1] = target: B2; assay: ITC; VP-ITC, 25 °C; ITC buffer (20 mM Hepes pH 7.5, 400 mM NaCl, 1 mM MgCl2, 5% w/v sucrose, 0.1 μM GTP) with 5 mM EGTA; the binder of each row in the syringe; settings: both partners purified
MBP-TRAK1_(342-431) [2] = target: B6; assay: as above; settings: both partners purified
MBP-TRAK1_(342-431) [3] = target: B6; assay: ITC; VP-ITC, 25 °C; ITC buffer (20 mM Hepes pH 7.5, 400 mM NaCl, 1 mM MgCl2, 5% w/v sucrose, 0.1 μM GTP) with 50 μM CaCl2; MIRO1_(177-591) in the syringe, TRAK1 construct in the cell; settings: both partners purified
[4] = target: the molecule itself; assay: mass photometry; Refeyn TwoMP, 125-150 nM protein, 100 mM NaCl, 50 μM MgCl2, 50 μM GTP with 1 mM EGTA or 100 μM CaCl2
MIRO1_(1-591) = target: B3; assay: co-sedimentation; 5-30% glycerol gradient, proteins mixed at 4 μM each in 20 mM Hepes pH 7.5, 500 mM NaCl, 1 mM MgCl2, 1 mM CaCl2, 1 mM DTT, 0.1 μM GTP; 165,000g, 16 h, 4 °C; fractions on SDS-PAGE; settings: both partners purified
MIRO1_(177-591) E208A = target: T1, MIRO1_(177-591) E208A (human, UniProt Q8IXI2 177-591, E208A); assay: ITC; VP-ITC, 25 °C; ITC buffer (20 mM Hepes pH 7.5, 400 mM NaCl, 1 mM MgCl2, 5% w/v sucrose, 0.1 μM GTP) with 5 mM EGTA; the binder of each row in the syringe; settings: both partners purified
T1 construct: source: E. coli ArcticExpress(DE3), purified (Ni-NTA, SourceQ flowthrough)

MIRO1_(177-591) E328A = target: T2, MIRO1_(177-591) E328A (human, UniProt Q8IXI2 177-591, E328A); assay: as above; settings: both partners purified
T2 construct: source: E. coli ArcticExpress(DE3), purified (Ni-NTA, SourceQ flowthrough)

MIRO1_(177-591) [5] = target: B2; assay: ITC; VP-ITC, 25 °C; ITC buffer (20 mM Hepes pH 7.5, 400 mM NaCl, 1 mM MgCl2, 5% w/v sucrose, 0.1 μM GTP) with 50 μM CaCl2; MIRO1_(177-591) in the syringe, TRAK1 construct in the cell; settings: both partners purified

- binding result (MIRO1_(177-591) [1]): binds
B1: TRAK1_(394-434) (peptide, UniProt Q9UPV9 394-434, looked up)
peptide: PDITHQKRVFETVRNINQVVKQRSLTPSPMNIPGSNQSSAM
notes: Cloned into pMAL-c6T; also called TRAK1 peptide narrowly encompassing CR2; not shown: 6xHis-MBP, N-terminal, cleaved

Binder: B2
- stoichiometry N (MBP-TRAK1_(342-431) [2]): 1.09
- stoichiometry N (MBP-TRAK1_(342-431) [3]): 1.11

Binder: B3
- binding result [4]: binds

- binding result (MIRO1_(1-591)): binds
B4: TRAK1_(99-532) (domain or fragment, human, UniProt Q9UPV9 99-532, looked up)
chain: AERVGQMTKTYNDIDAVTRLLEEKERDLELAARIGQSLLKKNKTLTERNELLEEQVEHIREEVSQLRHELSMKDELLQFYTSAAEESEPESVCSTPLKRNESSSSVQNYFHLDSLQKKLKDLEEENVVLRSEASQLKTETITYEEKEQQLVNDCVKELRDANVQIASISEELAKKTEDAARQQEEITHLLSQIVDLQKKAKACAVENEELVQHLGAAKDAQRQLTAELRELEDKYAECMEMLHEAQEELKNLRNKTMPNTTSRRYHSLGLFPMDSLAAEIEGTMRKELQLEEAESPDITHQKRVFETVRNINQVVKQRSLTPSPMNIPGSNQSSAMNSLLSSCVSTPRSSFYGSDIGNVVLDNKTNSIILETEAADLGNDERSKKPGTPGTPGSHDLETALRRLSLRRENYLSERRFFEEEQERKLQELAEKGE
notes: Cloned into pRSFDuet-1; codon-optimised synthetic cDNA; source: E. coli ArcticExpress(DE3), purified (Strep-Tactin, Ni-NTA)

B5: MBP-MIRO1_(1-180) (domain or fragment, human, UniProt Q8IXI2 1-180, looked up)
chain: MKKDVRILLVGEPRVGKTSLIMSLVSEEFPEEVPPRAEEITIPADVTPERVPTHIVDYSEAEQSDEQLHQEISQANVICIVYAVNNKHSIDKVTSRWIPLINERTDKDSRLPLILVGNKSDLVEYSSMETILPIMNQYTEIETCVECSAKNLKNISELFYYAQKAVLHPTGPLYCPEEKE
notes: human MIRO1, residues 1-180 (nGTPase); Cloned into pMAL-c6T; also called nGTPase of MIRO1 fused to MBP; source: E. coli ArcticExpress(DE3), purified (Strep-Tactin, MonoQ); not shown: MBP, N-terminal, kept
- binding result [4]: binds

Binder: B6
- Kd (MIRO1_(177-591) [1]): 8.77 µM
- binding result (MIRO1_(177-591) E208A): binds
- binding result (MIRO1_(177-591) E328A): binds
- Kd (MIRO1_(177-591) [5]): 2.76 µM

- binding result (MIRO1_(177-591) [1]): binds
B7: MBP-TRAK1_(342-431) ^400KR^401 to AA (domain or fragment, human, UniProt Q9UPV9 342-431, looked up)
chain: EAQEELKNLRNKTMPNTTSRRYHSLGLFPMDSLAAEIEGTMRKELQLEEAESPDITHQAAVFETVRNINQVVKQRSLTPSPMNIPGSNQS
notes: source: E. coli ArcticExpress(DE3), purified (amylose, Strep-Tactin); not shown: MBP, N-terminal, kept
